# Results reported in PMC5538295.
# B1: human MMP-9 wild-type probe (ssRNA)
# RNA: GUUCUGGAGGAAAGGGAGGAGUGGAGGUGGGCUGGGCCCUCUCUUCUCACCUUUGUUUUUUGUUGGAGUGUUUCUAAU
# Biological target: FMRP (rat, UniProt Q80WE1 1-593)
# Assay: EMSA; 150 mM KCl, tRNA; three shifted bands; Filter binding: 10 mM Tris pH 7.5, 50 mM KCl, 1 mM DTT, room temperature; REMSA: 20 mM HEPES pH 7.6, 150 mM KCl, 0.5 mM DTT, 5% glycerol, 50 ng/ul tRNA, room te
binder,measurement,value
B1,binding result,binds
